The record followed here is patent US20050181059A1, “Nanoparticulate therapeutic biologically active agents” (Spherics, Inc., priority 2003, published 2005).

Series [1] is described as follows: BCA analysis of protein concentration of redissolved hIL-12. It is filed as physicochemical. Particulars: BCA assay, resolubilized in 10 mM PBS. How it is done:
Recombinant Human Interleukin-12 (hIL-112) was obtained from Genetics Institute and tBA from EM Science. hIL-12 (500 microliters at 2.79 mg/ml) was injected into tBA (5 ml). A fine precipitate formed immediately. The dispersion was rapidly frozen in liquid nitrogen (15 minutes) and the solvent removed by lyophilization for 48 hours. The resulting powder was visualized by SEM. The stability following micronization was assayed by SDS-PAGE (Invitrogen) and BCA (Pierce) assay of hIL-12 resolubilized in 10 mM PBS according to manufacturer's instructions.
SDS-PAGE (denaturing, non-reducing) analysis was used to compare tBA-treated hIL-12 particles with the control stock, with and without lyophilization. […] This was confirmed by […] acid (BCA) analysis of protein concentration of hIL-12 redissolved after lyophilization alone, or after micronization followed by lyophilization. The lyophilized-only protein was 99% soluble, while the micronized protein was 71% soluble. Thus a disagreggating agent should be included to prevent aggregation when micronizing hIL-12 using tBA.

Series [2] can be described thus: SDS-PAGE stability following micronization. It is filed as physicochemical. The settings on record: denaturing, non-reducing; resolubilized in 10 mM PBS.
For series [3] the following is noted: in vivo.
Method: In a separate study, the bioavailability for non-encapsulated insulin was tested.

For the substance “lyophilized-only hIL-12: hIL-12 control stock redissolved after lyophilization alone”, the “soluble protein after redissolving” value in series [1] is recorded as 99%. In series [2], the “aggregation by SDS-PAGE” value is “did not produce irreversible aggregation”.

Take “micronized hIL-12: Recombinant Human Interleukin-12 injected into tBA, frozen and lyophilized”: the “soluble protein after redissolving” value in series [1] amounted to 71%. The “aggregation by SDS-PAGE” value in series [2] is “irreversibly denatured and aggregated into dimers, trimers, and aggregates too large to enter the gel”. Turning to “Non-encapsulated insulin: non-encapsulated insulin tested for bioavailability in a separate study”, the bioavailability result in series [3] is “less than 1%”.
